Tests used:
Conditions in all cases: both partners purified
[1] = target: T1, recombinant KLHL37-His protein (UniProt O14682 1-589); test: pull-down; in vitro co-IP: recombinant KLHL37-His incubated with GST fusion protein at RT (25°C) for 3 hours, then GST resin (preblocked with 1% BSA); IP: GST, IB: KLHL37
T1 construct: Kelch-like protein 37 (KLHL37), also known as ectodermal-neural cortex 1 (ENC1); also called rKLHL37-His; KLHL37-His (6x); source: E. coli BL21, purified (HisTrap HP)
T1 sequence (looked up): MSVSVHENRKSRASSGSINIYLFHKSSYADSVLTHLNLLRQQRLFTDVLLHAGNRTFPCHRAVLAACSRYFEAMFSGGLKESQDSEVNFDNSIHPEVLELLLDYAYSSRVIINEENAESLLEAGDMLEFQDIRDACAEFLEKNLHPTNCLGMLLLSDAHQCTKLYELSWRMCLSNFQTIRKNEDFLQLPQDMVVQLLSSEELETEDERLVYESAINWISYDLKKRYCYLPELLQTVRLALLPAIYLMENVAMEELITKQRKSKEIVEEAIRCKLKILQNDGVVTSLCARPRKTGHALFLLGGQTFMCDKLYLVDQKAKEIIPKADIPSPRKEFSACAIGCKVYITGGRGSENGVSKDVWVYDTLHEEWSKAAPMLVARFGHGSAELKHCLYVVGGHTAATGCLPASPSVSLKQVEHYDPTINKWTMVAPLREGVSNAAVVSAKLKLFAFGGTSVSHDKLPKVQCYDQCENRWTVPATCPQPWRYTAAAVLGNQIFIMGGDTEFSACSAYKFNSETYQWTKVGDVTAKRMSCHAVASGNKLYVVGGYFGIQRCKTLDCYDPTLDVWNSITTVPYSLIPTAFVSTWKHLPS

[2] = target: T2, KLHL37-His recombinant protein (UniProt O14682 1-589); test: MST; GFP–N-Myc or GFP–C-Myc at 200 nM in PBS-T (0.05% Tween 20); KLHL37-His serially diluted 16 times from 27.3 nM (N-Myc) or 7 μM (C-Myc); mixed 1:1; EC50 fitted
T2 construct: Kelch-like protein 37 (KLHL37, ENC1); the methods name only KLHL37-His; also called recombinant KLHL37; KLHL37-His (6×); source: E. coli BL21, purified (HisTrap HP)
T2 sequence (looked up): T1 sequence (looked up)

[3] = target: T2, KLHL37-His recombinant protein; test: pull-down; in vitro co-IP: recombinant KLHL37-His incubated with GST or GST–N-Myc at RT (25°C) for 3 hours, then GST resin preblocked with 1% BSA

B1: recombinant GST-N-Myc protein (natural protein, UniProt P04198 1-464, looked up)
chain: MPSCSTSTMPGMICKNPDLEFDSLQPCFYPDEDDFYFGGPDSTPPGEDIWKKFELLPTPPLSPSRGFAEHSSEPPSWVTEMLLENELWGSPAEEDAFGLGGLGGLTPNPVILQDCMWSGFSAREKLERAVSEKLQHGRGPPTAGSTAQSPGAGAASPAGRGHGGAAGAGRAGAALPAELAHPAAECVDPAVVFPFPVNKREPAPVPAAPASAPAAGPAVASGAGIAAPAGAPGVAPPRPGGRQTSGGDHKALSTSGEDTLSDSDDEDDEEEDEEEEIDVVTVEKRRSSSNTKAVTTFTITVRPKNAALGPGRAQSSELILKRCLPIHQQHNYAAPSPYVESEDAPPQKKIKSEASPRPLKSVIPPKAKSLSPRNSDSEDSERRRNHNILERQRRNDLRSSFLTLRDHVPELVKNEKAAKVVILKKATEYVHSLQAEEHQLLLEKEKLQARQQQLLKKIEHARTC
notes: N-Myc; also called rGST-N-Myc; source: SF9 insect cells (baculovirus), purified (GST TRAP HP); not shown: GST, N-terminal, kept
**Q.** Does B1 bind [1]?
**A.** Result: binds

B2: recombinant GFP–N-Myc (natural protein, UniProt P04198 1-464, looked up)
chain: B1 chain
notes: N-Myc; also called rGFP–N-Myc; source: E. coli BL21
**Q.** Does B2 bind [2]?
**A.** Result: binds

B3: GST–N-Myc recombinant protein (natural protein, UniProt P04198 1-464, looked up)
chain: B1 chain
notes: N-Myc; source: SF9 insect cells (baculovirus), purified (GST TRAP HP); not shown: GST, N-terminal, kept
**Q.** Does B3 bind [3]?
**A.** Result: binds

From publication PMC12259267, “Disruption of the KLHL37–N-Myc complex restores N-Myc degradation and arrests neuroblastoma growth in mouse models” (The Journal of Clinical Investigation, 2025)
